In paper doi:10.1101/2023.09.18.558353 one finds Kd data, which are given here for one substance.

The target of the experiment is SARS-CoV-2 wild-type (WT) spike protein trimer (SARS-CoV-2) (UniProt P0DTC2). The experiment can be described thus: SPR.

In the case of “LCB1 mini-binder protein (designed binder)”, the Kd is 1.22 nM.
